Data on one protein can be found in paper PMC9065997, “Mitochondria-associated myosin 19 processively transports mitochondria on actin tracks in living cells” (The Journal of Biological Chemistry, 2022).

This data set concerns the molecule itself. Nature of the data set: single-molecule photobleaching steps and spot intensity distribution (TIRF microscopy, HILO illumination); Halo-HM19 constructs expressed in living HeLa cells, stained with R110 Direct HaloTag ligand, spots in filopodia, 37 °C.

As a reminder, the stoichiometry N is a count of units in the complex or per binding partner.

B1: Halo-HM19^IQ3LZ (tail-truncated human myosin 19, residues 1-834, forced dimer with GCN4 leucine zipper, N-terminal HaloTag) (other)
chain: MLQQVNGHNPGSDGQAREYLREDLQEFLGGEVLLYKLDDLTRVNPVTLETVLRCLQARYMADTFYTNAGCTLVALNPFKPVPQLYSPELMREYHAAPQPQKLKPHVFTVGEQTYRNVKSLIEPVNQSIVVSGESGAGKTWTSRCLMKFYAVVATSPASWESHKIAERIEQRILNSNPVMEAFGNACTLRNNNSSRFGKFIQLQLNRAQQMTGAAVQTYLLEKTRVACQASSERNFHIFYQICKGASEDERLQWHLPEGAAFSWLPNPERSLEEDCFEVTREAMLHLGIDTPTQNNIFKVLAGLLHLGNIQFAASEDEAQPCQPMDDAKYSVRTAASLLGLPEDVLLEMVQIRTIRAGRQQQVFRKPCARAECDTRRDCLAKLIYARLFDWLVSVINSSICADTDSWTTFIGLLDVYGFESFPDNSLEQLCINYANEKLQQHFVAHYLRAQQEEYAVEGLEWSFINYQDNQPCLDLIEGSPISICSLINEECRLNRPSSAAQLQTRIETALAGSPCLGHNKLSREPSFIVVHYAGPVRYHTAGLVEKNKDPIPPELTRLLQQSQDPLLMGLFPTNPKEKTQEEPPGQSRAPVLTVVSKFKASLEQLLQVLHSTTPHYIRCIKPNSQGQAQTFLQEEVLSQLEACGLVETIHISAAGFPIRVSHRNFVERYKLLRRLHPCTSSGPDSPYPAKGLPEWCPHSEEATLEPLIQDILHTLPVLTQAAAITGDSAEAMPAPMHCGRTKVFMTDSMLELLECGRARVLEQCARCIQGGWRRHRHREQERQWRAVMLIQAAIRSWLTRKHIQRLHAAATVIKRAWQKWRIRMACLAAKELDGGTTHSYTSMKQLEDKVEELLSKNYHLENEVARLKKLVGERTSMKQLEDKVEELLSKNYHLENEVARLKKLVGERTSGSEL
modifications: rhodamine 110 (R110 Direct HaloTag ligand) on the HaloTag
notes: myosin 19 (Myo19, HM19), human, residues 1-834 (motor domain and three IQ motifs; 835 to 970 removed), cDNA from GeneCopoeia NM_001163735.1; also called R110-Halo-HM19^IQ3LZ; R110-Halo-HM19^IQ3-LZ; source: HeLa cells, transfected, in living cells; not shown: HaloTag, N-terminal, kept
As for B1, the “stoichiometry N” value is 2.
